Data from PMC10037368 (2023).

Target: Spike glycoprotein (Wuhan-Hu-1) RBD (Severe acute respiratory syndrome …, UniProt P0DTC2)
Experiment: ELISA

B1: Sb92 sherpabody (designed binder)
chain: EEYIAVGDFFSTDPADLTFKKGEILLVIERGTSAGDGWWIAKDAKGNEGLVPRTYLEPYS
For B1, the Kd was 30 nM.
